Square brackets hold non-standard residues; d marks the D form. pY = N[C@@H](Cc1ccc(OP(=O)(O)O)cc1)C(=O)O
Experiments:
Assay in all cases: NMR titration
[1] = target: Itk SH3 domain (wild type)
[2] = target: Itk SH3(E189Q) domain
[3] = target: Itk SH3(Y180E) domain
[4] = target: Itk SH3(E189K) domain
[5] = target: Itk SH2(I282A) domain

## Itk SH2 domain (wild type) (domain or fragment)
[1]
  Kd: 0.67 mM
[2]
  Kd: 2.05 mM

## Itk SH2(K280A) domain (domain or fragment)
[3]
  fold drop in affinity against SH3(Y180E)/wild type SH2: 10 fold

## Itk SH2(K309E) domain (domain or fragment)
[4]
  Kd: 1.08 mM
[1]
  Kd: 1.85 mM

## Itk SH2(R332A) domain (domain or fragment)
[1]
  Kd: 1.8 mM

B1: phosphopeptide derived from Slp76 (Ac-ADpYEPP-NH2) (peptide)
peptide: Ac-AD[pY]EPP-NH2
SMILES: CC(=O)N[C@@H](C)C(=O)N[C@@H](CC(=O)O)C(=O)N[C@@H](Cc1ccc(OP(=O)(O)O)cc1)C(=O)N[C@@H](CCC(=O)O)C(=O)N1CCC[C@H]1C(=O)N1CCC[C@H]1C(N)=O
[5]
  Kd: 1 mM
